According to the DeepSol protein solubility set:

test: soluble on expression in E. coli; label from the status in PepcDB or PDB records

Soluble on expression in E. coli, not soluble:
MGSDKIHHHHHHMTNRYDAVIIGAGHNGLVCGAYLARKGFKVCLLERRELAGGAAVSEAVWPGYRVSTASYTMALLQPRIIDELELAKYGYEIVVPPPMLHLYGDGRSLLFRPEGERLSADIARFSEADADAYGKYRAHMARLGKMVAGMLWETPPDPADSTLSARSRLLGFAWRFRDMGEQFYDLYDVLTLSARDYLARWFESDEMIAALGFYASCGGAATSICSPGSAYVLLRGFIRDHTTSAGPAGFVRGGMGSISEAIAASGKAYGMEVRCNAPVASVEISGERATGVRLSSGELIEAGCVISNVATKVLFQQLVGAQNVPPEFLARVRQIRDRSTAFKVNLALRRLPTFKDFDARSAGFAYPAQVRLAPSVEYLERAWDAAKYGEISPRPPLVVLTPSAVDPGVAPKGKHLMSIFGQHAPYALRDGPWDDAQRERLYQITLDTLAAYAPDIRECIDDAQVLSPADLERIFALPGGHVHHGELSADQIFFRRPVQGAADYCTPVKGLYQCGASVHPGGGVTGVPGYNAAHVVVRRERH, MGSDKIHHHHHHMTNTFSFDWAIAPETPDTFFAEYFEKKPMLIKRGQPGYFSDLLSYGEIDRVVSTMGLHVPEINVTRADGNITPADFAYETGQIDPVRVNQLHADGATVILSGLHERLPALARYCRAMEAAMSARVQTNIYMTPPGNQGFNPHYDGHDVLVLQVAGTKEWRIYGTPVELPLADQAFERGMDVGEEAQRFVLEPGDAVYIPRGMAHDAVATDETSLHITTGLMFRTWADALAEAVIAKAHREPSLRRALPPGFANNGVDLDDYKDTFAELIELVGDAHVGKLLSGFREEFLTARVPRVEGQMAQLAKLDGLTMDSRMGAHPHIVFGIHDVPNEDQVCLVAQGAEIILPAHARDAMEFCITTADFRLGDMEGDLDDAGKMVLAKRFVREGLMRVL, MGSDKIHHHHHHMTPDEVLRIASMHAVRGEYETALSLLRQLHAFIPDDIQVMRALGIVLANSGDHEAALPFLHQVAQRQCTPDNVMGLIKVLGAMRRFPDIDHVCSVVWPHIGDELAFLGEWGYANLLMERFDRALEILGKALALDPHFRPALHNGASALVRSGRGEEAVSMYSRLGRAWASTEAVARDFVGEYAALSQSYDDNPLHHYFSARLVRLVQDARPEAMPDSVLELGCGSGLLSQALPQKPDRLVGIDISPDMLARARTRGAYSSLLCGDLVEVMAGLEEPFDAVMSAGVLCYLPDLRKVFANVARLLSPGGVFAFSVDPVGDDMEIAEMEPGEFAHSRPYLRALAAETGLTEIRIDIDLHRGAPGFWCSFGKAG, MGSDKIHHHHHHMTPIPKTSVPKTSVPTTPEPIRTNIPTALGKCLSLCLCLLLPLTQAWAETPANADVTASDNAIIAGHEFSHDSSEFKTPRRYMVSLPEGYHGNTRHYPVLYVVDADFQFQHVSALALHLARMGKIAPMIVVGIANQGQSDYLYTTTWKSDEGEAFGGADTFYRYLAKELIPTIDKQFRTNPHKALAGYSLGGLFTLYAMTQANSPFDAYLAMSPSVWYDKMHYIELLKQRLQKSPIEAPLFLTLANEQEMGVDELVTALKGYDAQKIHWQFKQYPSENHFTTALPALNDGLLFLSPDYGLDGSDMLALGDYRAVLDYFAKRKANWAGFHIEWLQAYQFGKYLFWSKQLDKLDGILAAVKQEFPDSLTIVTVQVAKGFNVKGDGARAKALLDSVAKEGEASPYWHREMSLYYQSQGDEANAQRHQQKALALATQYRLNTWELWELQ, MGSDKIHHHHHHMTPSMVEDVRIEQLWIPDSLDGPDSADFLAAVEVGRKVRMQTWGSDDLAYTPLEKLLEFADPYERQVILVARVEGNIVGTVDIALPLADNLDLAEFTLDILPEFQRQGVGRQLLEAAEQFARAEGRSMILIDTNHPGVSLSSSADDQLVPGSGLGFVPMGSREVEFARKTGYTLQHIEQFSSCLLPLDTKLVAELSDEAEQANAGRYRLHHWTDRCPDIWLEGVAALENQAGGDTEPSTRTDEQMVFDGAMIRKAEDATIAQGRRTVVTAVEHIATGTLVGLTTISVLSQRQDVVFQDDTVVMQEHRGNKLGLLIKVANMVRLTEQFPDARVIYTWNAPENRYLLKVNQQLGFNTAGVTGIWQKDLPDLGPSSS, MGSDKIHHHHHHMTPYRDNTPHLARDNHLLFTELARDYCLSMPISFKEALDRAQDATGLSMRKLADKAGVSYEQLKKVRQGKSQTTNAEDALKIATAVGVSFEQFMSGEFDASPTISIAGKVGAGAQVPVFDAYEKGDGPQVECPPGIGPHGVVAVEVEGDSMEPVYSAGDLLFYSRNGHDSVPDDVIGYKCVCEDADGMGWVKQVKAGDEPGLFHLISLNPTGANMWNVRLKWAARVRLHWPAEFARKK, MGSDKIHHHHHHMTQPFKDAIGICKAIMRNGYDAYVVNTQLQSEILDQDCLEIDIACEPGYVELGKIFPGLEMSGEDGVVGTLREGGTLFRFYHTDTDDSSHPEATLARVTPTMLRRLEAKGTLPASLACPFIPSSAETYQGFDDFSKGDIRFEGVPDETLRRSYVLGVRAMRIAANFDLPIEPNSWMAIVRSASRILDYVPVTEIMDEWRKVEAENMYKFVQLMFDSMLLHGLIPELAALSRIRHLRTPEAGEETVLDHTIECMRRYPEELPFDWLGTVATMFHDVGKLYAAEYYNGKWTFYQHHRIGAKVTRKILRRLHFLPEDVDLICHLVRNHMRFHFMLTDKGIRRFKALDEYPRLIEMARADIKARDGNYTHFNHNMKYLERAETPEQMLEPLLNGNEIMEFTGLKPGPYVGVIRDALLKAQVTGEVTSMEEAIEYVKTYSERAPR, MGSDKIHHHHHHMTQRHSRILLFVVNTPEFFLSHRLPIAIAAHKAGYEVHVASAEGDGVQAVLAHGFVHHSIGFARSGQNPWVEFRTLVSLVQVMRRVQPDIVHLITIKPVLYGGIAARLVRVPAVVSAVSGLGTVFLAHTWATRLRRWFIIELYKAAFKQRSLAVIFQNPDDRDTLISSGAIQSGDTRMIRGSGVSLDDYPCVTEPEGKPVAVMAARLLRNKGVVEFVGAARILRDRGVDVDMRLIGSPDLDNPASVTELELERWKSESVVTLMGYRKDIAHQYASSNIVCLPSYYGEGLPKSLVEAAACGRAVVTTDHPGCRDAILPDETGVLIPIKDSVALANAIQRLIENPDLRRKMGKAGRELAEEAFSIDQIVEQHLKIYDEVMATVRNGSLRQ, MGSDKIHHHHHHMTRILLRNKLDECLAAWQKAGFSVLAPVKRHEMSCFGEVQKSGDMALDLVLTERTIKDQFFPQTEPLIKYRIGKQQIDSETMTPPEKKRVFFGVRPCDASGLAIDDPLFGWDYKDDYWFRRREKSVIVTIACAQADDFCMCTSVKLSPDSTKGADVMLRPLSDGSGWQVEAVSDRGTALVDTVSSLLQESSAEAAPVPQVAEKFDVEKVMEWLADKENFESQFWKDIALRCVGCGSCTFLCPTCHCFDIQDEGDTYQGIRRKNWDSCSFPLFTMHTSGHNPRNTQSTRWRQRIMHKFNYYRGKFGVNSCSGCGRCTRQCPVDMGITETLQAITNLPR, MGSDKIHHHHHHMTRRPPLINRLGATPVHPERDPAHPLVVFGDNRFCAGELLDVQKMAGPHMHSQIELNFVLEGSMTYWFDGRELTISEGRLCLFWGMIPHQVIDRREGTRFICLYVPMSVFLGLASLSQFRDSVFRGAVIEALHLRAWDREIFLRWRDELLGGDEGDIEIVRSELTARLMRIERDGWRDLREQGSALASLGQRDAGWMLHVEKMLRFIGEHAPDTISAEDVGRAAGLHPNYAMSLFKRAVGTTINQAIIRHRLDTAQSLLISSDMPITEVAYESGFGSLSTFYEAFQRRFMEKPVQYRRRMRAKGTAAQSIA, MGSDKIHHHHHHMTRYQHLATLLAERIEQGLYRHGEKLPSVRSLSQEHGVSISTVQQAYQTLETMKLITPQPRSGYFVAQRKAQPPVPPMTRPVQRPVEITQWDQVLDMLEAHSDSSIVPLSKSTPDVEAPSLKPLWRELSRVVQHNLQTVLGYDLLAGQRVLREQIARLMLDSGSVVTADDIIITSGCHNSMSLALMAVCKPGDIVAVESPCYYGSMQMLRGMGVKVIEIPTDPETGISVEALELALEQWPIKGIILVPNCNNPLGFIMPDARKRAVLSLAQRHDIVIFEDDVYGELATEYPRPRTIHSWDIDGRVLLCSSFSKSIAPGLRVGWVAPGRYHDKLMHMKYAISSFNVPSTQMAAATFVLEGHYHRHIRRMRQIYQRNLALYTCWIREYFPCEICITRPKGGFLLWIELPEQVDMVCVARQLCRMKIQVAAGSIFSASGKYRNCLRINCALPLSETYREALKQIGEAVYRAME, MGSDKIHHHHHHMTSAANLVRITQPAISRLIRDLEEEIGISLFERTGNRLRPTREAGILFKEVSRHFNGIQHIDKVAAELKKSHMGSLRVACYTAPALSFMSGVIQTFIADRPDVSVYLDTVPSQTVLELVSLQHYDLGISILAGDYPGLTTEPVPSFRAVCLLPPGHRLEDKETVHATDLEGESLICLSPVSLLRMQTDAALDSCGVHCNRRIESSLALNLCDLVSRGMGVGIVDPFTADYYSANPVIQRSFDPVVPYHFAIVLPTDSPPPRLVSEFRAALLDALKALPYETI, MGSDKIHHHHHHMTSVEPTKAVLFLQGPPSILWTEFARAFEQAGVKTHHVNFTLGDFLFWRKRGAKNYRGSFSKWPAYLRRLIAEKGITDIVYYADRLPYHAKAAEIGEELGVRCHAVEWGYLRPDWLTFERDGMGRFSHFPNDPKAIRAIAAKVEEPDIAVKYPHTFGQEAFNEVIYNLLNFFGRPFYPLYNADKYYSALVDYLPWLLKAGVKPARLPEGFLEDGQPPFYLVALQLQSDYQIRANSPYRHLRDMMRQVIASFVKNAPAGSKLLFKQHPLDNGLERWHKVLRHIAREFKIEDRVVFIEEGDLHDILQKTAGVVIVNSTVGLHSLRAQKPTIVLGCAVFDVPGLTHQGRLDDFWKRPEPVDPELMRDLVKAMAATIQIKGDFFNKAGRQAAIGAMVQRVIEGTVNMPDAFIDPPPRLTSPKGILTVLGRPVELDWEEDAAVPDMTYARSGPIR, MGSDKIHHHHHHMTTDGQLAYQQTCDYPIEERQSEQQVIRQYLPLIKRIVSQMRSHCGVMLSLEDMEQIGMMALLESSRRYPGELDNGFISFAGQRIRGAILDELRRQDWRPRPVRQQAHELNDVVRRLSREMGREPSDLEVASALGLSAEDYRERLYSTQAESMKSLDELLLVGEHPVDRGNDVEQLMLKQTLIKVISKLNEREQLILSLYYHHELNLKEIAMALGLTETRICQLHKSAISQLKTILQR, MGSDKIHHHHHHMTTHTKPGLRPANPNFSSGPCAKRPGWSVEALKNAALGRSHRAKIGKTKLEQAIELTREILQVPADHRIGIVPASDTGAVEMALWSLLGERGVDMVAWESFGSGWVTDVVKQLKLPDVRKLEAGYGELPDLAKIDFDRDVVFTWNGTTSGVRVPNGDFIPADRKGLTICDATSAAFAQRLDFEKLDVVTFSWQKVLGGEGAHGMLILSPRAVARLESYKPAWPLPKIFRLTSGGKLIEGIFKGETINTPSMLCVEDYLDALHWAKSIGGLDVLVARADANAAVLDGFVDKSSWLGHLAVQPATRSNTSVCLSFTDPDVAALDADGQATFAKGLVSALDKEGVAYDIGSYRDAPPGLRIWCGATVETSDLETLLPWLDWAFAAQKASLKAAA, MGSDKIHHHHHHMTTNNASPEAGHIMQTRTVDLDGQVLRVGIRPGSGDLPPLLMFNGIGANLELVEPFVDALPDVEVIIFDIPGAGGSPAPLFPYRFSNLCVMADKLLSHLGYAGPVDTLGVSWGGALAQEFARLYPQRCRRLVLAATSPGVLMVPGSPSVLTKMIGIRRYTDAEYLRRVGGDIYGGAFRDDPSLLDVHGGHMRPPRGRGYLYQLLAAWGWSSLPWLRALKQRTLVLHGSDDPIVPLINAKILSGCIPDSALHVFHDDGHLFLLTAARESARVVGEFLREGR
